The values that follow come from US20190316091A1.

In this experiment the target is immune complexes of Dylight 650-labeled bovine serum albumin, polyclonal rabbit anti-BSA and human serum complement (bovine) (UniProt P02769). As to the kind of experiment: cell-based or functional assay.
Chain of UniProt P02769 (P02769 25-607, one chain of several): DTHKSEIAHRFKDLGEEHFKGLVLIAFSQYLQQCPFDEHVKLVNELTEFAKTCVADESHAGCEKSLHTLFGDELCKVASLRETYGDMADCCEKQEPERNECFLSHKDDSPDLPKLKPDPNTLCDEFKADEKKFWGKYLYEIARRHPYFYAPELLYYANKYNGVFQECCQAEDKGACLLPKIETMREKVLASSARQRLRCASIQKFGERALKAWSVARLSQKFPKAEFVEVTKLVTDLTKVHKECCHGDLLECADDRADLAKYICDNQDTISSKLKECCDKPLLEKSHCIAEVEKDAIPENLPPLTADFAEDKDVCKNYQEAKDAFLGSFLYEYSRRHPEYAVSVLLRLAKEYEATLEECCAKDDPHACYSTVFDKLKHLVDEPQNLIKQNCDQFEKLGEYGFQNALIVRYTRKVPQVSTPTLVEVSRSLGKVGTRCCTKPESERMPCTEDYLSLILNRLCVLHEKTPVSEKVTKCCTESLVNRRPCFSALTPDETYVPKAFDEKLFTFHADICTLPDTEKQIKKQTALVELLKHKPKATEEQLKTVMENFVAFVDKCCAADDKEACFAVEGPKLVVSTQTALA

Turning to “complement receptor 1 (CR1) over-expressed on the surface of cultured erythroid cells (from UniProt P17927 42-2039)”, the uptake of labeled immune complexes by PMA-activated U937 macrophages in co-culture (flow cytometry fluorescence) is 2 fold.
